Patent US20160280748

Columns and labels:
[1] = tested on: +36 GFP-(GGS)4-ALAL-(GGS)4-mCherry-His6
[2] = tested on: +36 GFP-(GGS)4-ALAL-(GGS)4-Cre-His6
Sequence of +36 GFP-(GGS)4-ALAL-(GGS)4-Cre-His6 (chain, as listed by the source): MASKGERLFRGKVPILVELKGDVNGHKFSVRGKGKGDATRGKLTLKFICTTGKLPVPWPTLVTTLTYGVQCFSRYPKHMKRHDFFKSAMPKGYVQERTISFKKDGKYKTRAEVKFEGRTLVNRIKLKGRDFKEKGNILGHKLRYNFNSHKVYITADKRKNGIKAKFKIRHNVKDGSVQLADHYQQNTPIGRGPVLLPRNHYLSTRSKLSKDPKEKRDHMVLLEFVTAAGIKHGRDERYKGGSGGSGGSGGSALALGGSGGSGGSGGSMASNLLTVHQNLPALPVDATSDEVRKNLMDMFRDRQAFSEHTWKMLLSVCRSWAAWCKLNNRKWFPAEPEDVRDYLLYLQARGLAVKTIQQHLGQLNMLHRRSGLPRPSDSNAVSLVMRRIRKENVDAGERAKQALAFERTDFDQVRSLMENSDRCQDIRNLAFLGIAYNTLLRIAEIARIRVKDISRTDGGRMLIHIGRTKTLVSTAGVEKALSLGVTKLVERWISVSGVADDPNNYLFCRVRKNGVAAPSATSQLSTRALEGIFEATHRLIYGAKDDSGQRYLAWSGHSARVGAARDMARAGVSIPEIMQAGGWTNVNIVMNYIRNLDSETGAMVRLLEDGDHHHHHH

Sequence of +36 GFP-(GGS)4-ALAL-(GGS)4-mCherry-His6 (chain, as listed by the source): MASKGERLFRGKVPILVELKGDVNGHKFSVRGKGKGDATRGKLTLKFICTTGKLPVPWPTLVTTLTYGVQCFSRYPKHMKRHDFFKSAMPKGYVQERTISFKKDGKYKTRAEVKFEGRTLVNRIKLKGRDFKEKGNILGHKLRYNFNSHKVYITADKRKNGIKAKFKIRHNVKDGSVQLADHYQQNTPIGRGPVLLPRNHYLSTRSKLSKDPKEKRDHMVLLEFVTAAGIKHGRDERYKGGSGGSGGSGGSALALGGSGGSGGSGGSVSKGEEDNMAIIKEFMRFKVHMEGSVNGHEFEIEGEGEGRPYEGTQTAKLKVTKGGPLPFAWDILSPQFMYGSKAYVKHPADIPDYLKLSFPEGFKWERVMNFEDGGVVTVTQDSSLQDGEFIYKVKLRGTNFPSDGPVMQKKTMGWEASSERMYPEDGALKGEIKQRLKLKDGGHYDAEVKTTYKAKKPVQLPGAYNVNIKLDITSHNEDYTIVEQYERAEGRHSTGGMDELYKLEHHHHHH

## cathepsin B from human liver (Sigma)
[1]
  cleavage of the fusion protein in vitro (gel): Cleavage of +36 GFP-mCherry fusion. ... lane 4: +36 GFP-mCherry fusion after treatment with 500 ng cathepsin B for 45 min at 37 °C
[2]
  cleavage of the fusion protein in vitro (gel): the +36 GFP-Cre fusion was indeed cleaved into two protein fragments with lengths consistent with separated +36 GFP and Cre
